Experimental data from publication PMC9430723.

Experiments:
[1] = target: T1, AlkX (Rv3249c), TetR family regulator (Mycobacterium tuberculosis) (UniProt O05892); assay: EMSA
T1 sequence: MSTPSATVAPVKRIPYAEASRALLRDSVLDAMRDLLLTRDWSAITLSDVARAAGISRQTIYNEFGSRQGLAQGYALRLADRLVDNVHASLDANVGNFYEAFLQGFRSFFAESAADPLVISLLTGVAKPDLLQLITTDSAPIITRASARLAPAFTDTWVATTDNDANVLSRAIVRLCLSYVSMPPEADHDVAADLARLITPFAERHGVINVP

[2] = target: T1, AlkX (Rv3249c), TetR family regulator (Mycobacterium tuberculosis); assay: competition

Sequence | binding [1] | binding [2]
CGGCGATTGACTGTTCTACCGACTTCATGCGCCGTCGACCGGCCATGCACCCGTCCTCTCGCACTCGTTGTGACCGCACAGTACTGGGTACTCTGCGAGGATGACGGGTCGCGTAGGGAACCCGAAGGACCACGCCGTGGTGATCGGAGCTAGCATCGCCGGGTTGTGCGCCGCGCGGGTGCTCTCGGACTTCTACTCCA (double strand) [rv3253c promoter probe] | no binding | 
TCGGCAAGCTCGAGAGAGCGCGACCCGGAGGTGTTGAACTAGCTTCGCCGCGTATTTACAAATTGCGTTATATGTCTAGACATAAGACGCAAACTGCTCTATTGTCAAATCCCAACGTGGTGTGGCTCATGAGGAGGTTTGGCATATGACCACGCAAATCGGCTCTGGTGGACCCGAAG (double strand) [rv3252c (alkB) promoter probe] | binds | 
TCGGCAAGCTCGAGAGAGCGCGACCCGGAGGTGTTGAACTAGCTTCGCCGCGTATTTACAAATTGCGTTATATGTCTAGACATAAGACGCAAACTGCTCTATTGTCAAATCCCAACGTGGTGTGGCTCATGAGGAGGTTTGGCATATGACCACGCAAATCGGCTCTGGTGGACCCGAAG (double strand) [unlabeled (cold) rv3252c (alkB) promoter probe] |  | binds
